From patent US20130122568 come the findings set out here.

What all share (assay): cleavage_in_vitro
Data set [1] has as its system T1, AvrII (Anabaena variabilis).
T1 sequence: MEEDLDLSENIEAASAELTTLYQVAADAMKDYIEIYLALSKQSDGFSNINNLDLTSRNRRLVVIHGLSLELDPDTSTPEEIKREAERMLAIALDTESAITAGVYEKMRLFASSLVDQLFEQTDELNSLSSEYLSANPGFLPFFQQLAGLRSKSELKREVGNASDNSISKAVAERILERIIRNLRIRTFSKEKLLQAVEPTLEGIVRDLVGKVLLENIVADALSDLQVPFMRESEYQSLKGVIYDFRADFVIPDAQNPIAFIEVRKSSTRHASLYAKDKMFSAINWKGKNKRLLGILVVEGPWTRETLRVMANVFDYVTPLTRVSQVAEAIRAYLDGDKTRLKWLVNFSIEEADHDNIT
The conditions noted are these: NEB1, 37 C.

The test system of data set [2] is T2, AvrII-HF Y104F (Anabaena variabilis).
T2 sequence: T1 sequence with Y104F
As to conditions: NEB4, 37 C.

Data set [3] has as its target T3, SalI (Streptomyces albus G) (UniProt Q53608).
T3 sequence: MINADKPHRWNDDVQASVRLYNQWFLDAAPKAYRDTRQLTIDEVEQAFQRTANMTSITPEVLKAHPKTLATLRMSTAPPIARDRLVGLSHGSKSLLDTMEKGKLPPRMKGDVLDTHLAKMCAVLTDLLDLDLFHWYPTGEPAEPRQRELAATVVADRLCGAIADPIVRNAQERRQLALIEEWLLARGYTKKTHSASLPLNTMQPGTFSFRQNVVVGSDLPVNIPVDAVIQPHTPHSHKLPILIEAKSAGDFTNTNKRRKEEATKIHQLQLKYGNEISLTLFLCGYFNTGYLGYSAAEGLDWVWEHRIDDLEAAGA
As to conditions: NEB3, 37 C.

Data set [4] deals with T4, SalI-HF R107A (Streptomyces albus G) (UniProt Q53608).
T4 sequence: T3 sequence with R107A
As to conditions: NEB2, 37 C.

The target in the next data set is T5, PvuII (Proteus vulgaris) (UniProt P23657).
T5 sequence: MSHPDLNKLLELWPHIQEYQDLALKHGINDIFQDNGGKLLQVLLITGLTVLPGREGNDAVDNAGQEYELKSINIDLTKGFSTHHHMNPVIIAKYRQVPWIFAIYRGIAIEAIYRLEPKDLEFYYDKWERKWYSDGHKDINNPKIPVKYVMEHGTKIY
The conditions noted are these: NEB1, 37 C.

Positions count from the first letter of the chain named.

With T7 DNA, the activity (fidelity index) in data set [1] was 64; in data set [2], over 1000.
On to HindIII-digested lambda DNA, for which the activity (fidelity index) in data set [3] was 32; in data set [4] it was over 64000.
pBR322: the activity (fidelity index) with PvuII (Proteus vulgaris) turned out to be 250.
